The text below walks through data of patent US20240307370A1, “SIGMA RECEPTOR LIGANDS FOR TREATING SARS-COV-2 INFECTION” (University of Florida Research Foundation, Incorporated, priority 2021, published 2024).

For test [1], the system named is SARS-CoV-2. Type of test: cell-based. Conditions: 400 μg/ml, 48 hours after infection, vs DMSO alone.
Test [2] deals with SARS-CoV-2. It is filed as cell-based. Conditions: 400 μg/ml, H23-hACE2, MOI 0.01, 48 hpi.

B1: lactoferrin: host-iron sequestration protein; lactoferrin from human milk, MilliporeSigma (protein, UniProt P02788 20-710, looked up)
Lactotransferrin: GRRRSVQWCAVSQPEATKCFQWQRNMRKVRGPPVSCIKRDSPIQCIQAIAENRADAVTLDGGFIYEAGLAPYKLRPVAAEVYGTERQPRTHYYAVAVVKKGGSFQLNELQGLKSCHTGLRRTAGWNVPIGTLRPFLNWTGPPEPIEAAVARFFSASCVPGADKGQFPNLCRLCAGTGENKCAFSSQEPYFSYSGAFKCLRDGAGDVAFIRESTVFEDLSDEAERDEYELLCPDNTRKPVDKFKDCHLARVPSHAVVARSVNGKEDAIWNLLRQAQEKFGKDKSPKFQLFGSPSGQKDLLFKDSAIGFSRVPPRIDSGLYLGSGYFTAIQNLRKSEEEVAARRARVVWCAVGEQELRKCNQWSGLSEGSVTCSSASTTEDCIALVLKGEADAMSLDGGYVYTAGKCGLVPVLAENYKSQQSSDPDPNCVDRPVEGYLAVAVVRRSDTSLTWNSVKGKKSCHTAVDRTAGWNIPMGLLFNQTGSCKFDEYFSQSCAPGSDPRSNLCALCIGDEQGENKCVPNSNERYYGYTGAFRCLAENAGDVAFVKDVTVLQNTDGNNNEAWAKDLKLADFALLCLDGKRKPVTEARSCHLAMAPNHAVVSRMDKVERLKQVLLHQQAKFGRNGSDCPDKFCLFQSETKNLLFNDNTECLARLHGKTTYEKYLGPQYVAGITNLKKCSTSPLLEACEFLRK
In the case of B1, the “decrease of N-protein RNA copies (qPCR)” value in the test on SARS-CoV-2 [1] turned out to be 28.0%. In addition, the “effect on SARS-CoV-2 concentration (TCID50), words” value in the test with SARS-CoV-2 [2] is “ineffective”.
